# Laboratory results reported in patent US20190218308A1 (INNATE PHARMA, published 2019).
# Numbering of substitutions follows the chain as printed.
# T1: CD39 mutant 15 (human, UniProt P49961 1-510)
# T1 construct: Expressed on Hek-293T cells; also called M15
# T1 chain: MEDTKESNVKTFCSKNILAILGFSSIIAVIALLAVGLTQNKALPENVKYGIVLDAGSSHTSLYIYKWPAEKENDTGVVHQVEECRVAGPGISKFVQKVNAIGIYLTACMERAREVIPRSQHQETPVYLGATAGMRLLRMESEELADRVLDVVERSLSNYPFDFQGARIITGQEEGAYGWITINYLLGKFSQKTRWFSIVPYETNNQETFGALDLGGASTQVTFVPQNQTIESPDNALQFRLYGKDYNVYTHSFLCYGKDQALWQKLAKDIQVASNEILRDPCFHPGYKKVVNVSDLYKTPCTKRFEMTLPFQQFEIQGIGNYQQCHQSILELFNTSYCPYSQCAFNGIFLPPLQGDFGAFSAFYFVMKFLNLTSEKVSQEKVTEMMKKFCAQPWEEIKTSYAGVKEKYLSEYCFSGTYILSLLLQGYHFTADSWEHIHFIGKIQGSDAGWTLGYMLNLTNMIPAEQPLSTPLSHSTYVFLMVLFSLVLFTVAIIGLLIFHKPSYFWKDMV
# T2: CD39 mutant 5 (human, UniProt P49961 1-510)
# T2 construct: Expressed on Hek-293T cells; also called M5
# T2 chain: T1 chain with A87K, Q96A, N99A, A100E, A107D, E143A, R147E
# T3: CD39 mutant 19 (human, UniProt P49961 1-510)
# T3 construct: Expressed on Hek-293T cells; also called M19
# T3 chain: T1 chain with A87K, A100E, A107D, R138A, M139A, E142K
# T4: CD39 mutant 11 (human, UniProt P49961 1-510)
# T4 construct: Expressed on Hek-293T cells
# T4 sequence: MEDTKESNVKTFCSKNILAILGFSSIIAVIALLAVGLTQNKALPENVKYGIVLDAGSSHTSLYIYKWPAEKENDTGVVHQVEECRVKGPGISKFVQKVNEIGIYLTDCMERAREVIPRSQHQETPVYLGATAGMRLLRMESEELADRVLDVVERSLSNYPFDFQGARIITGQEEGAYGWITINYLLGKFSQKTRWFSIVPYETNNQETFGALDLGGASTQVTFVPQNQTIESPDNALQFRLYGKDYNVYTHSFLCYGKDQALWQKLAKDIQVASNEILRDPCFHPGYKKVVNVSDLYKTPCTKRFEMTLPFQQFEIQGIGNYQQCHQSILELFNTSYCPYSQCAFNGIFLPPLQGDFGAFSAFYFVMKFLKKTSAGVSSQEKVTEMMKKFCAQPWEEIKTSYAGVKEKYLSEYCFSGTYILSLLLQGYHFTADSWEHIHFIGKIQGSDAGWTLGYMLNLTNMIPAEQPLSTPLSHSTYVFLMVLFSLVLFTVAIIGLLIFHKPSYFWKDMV
# B1: antibody I-395 (antibody, V domains shown)
# VH: EVQLQQSGPELVKPGASVRMSCKASGYTFTDYNMHWVKKNHGKGLEWIGYINPNNGGTTYNQKFKGKATLTVNTSSKTAYMELRSLTSEDSAVYYCTRGGTRFASWGQGTLVTVSA
# VL: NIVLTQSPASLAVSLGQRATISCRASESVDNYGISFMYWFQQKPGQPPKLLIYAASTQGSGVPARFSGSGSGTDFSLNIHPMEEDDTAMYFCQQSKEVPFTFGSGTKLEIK
# notes: Hybridoma antibody purified with protein A
# B2: antibody I-399 (antibody, V domains shown)
# VH: PVQLQQPGAEVVMPGASVKLSCKASGYTFTSFWMNWMRQRPGQGLEWIGEIDPSDFYTNSNQRFKGKATLTVDKSSSTAYMQLSSLTSEDSAVYFCARGDFGWYFDVWGTGTSVTVSS
# VL: EIVLTQSPTTMTSSPGEKITFTCSASSSINSNYLHWYQQKPGFSPKLLIYRTSNLASGVPTRFSGSGSGTSYSLTIGTMEAEDVATYYCQQGSSLPRTFGGGTKLEIK
# notes: as for B1
# B3: antibody I-396 (antibody, V domains shown)
# VH: EVQLQQSGAELVKPGASVKLSCIVSGFNIKDTYINWVKQRPEQGLEWIGRIDPANGNTKYDPKFQGKATMTSDTSSNTAYLHLSSLTSDDSAVYYCARWGYDDEEADYFDSWGQGTTLTVSS
# VL: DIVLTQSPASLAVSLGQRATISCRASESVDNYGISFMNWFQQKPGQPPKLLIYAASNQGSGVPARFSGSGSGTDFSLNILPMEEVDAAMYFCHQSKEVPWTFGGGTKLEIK
# notes: as for B1
# Tests used:
# CD39 mutant 15 [1] = molecular target: T1, CD39 mutant 15; assay: flow cytometry, Hek-293T cells transfected with CD39 mutant 15 (panel M15), table under the panel; unstained (US) 8,98; antibody concentration not shown
# Protocol: (§1) Mutants were transfected in Hek-293T cells, as shown in the table 1, using numbering of SEQ ID NO: 2. […] Mutant 19 includes substitutions at residues R138, M139 and E142.
# (§2) Mutants were transfected in Hek-293T cells, as shown in the table 1, using numbering of SEQ ID NO: 2. Dose-ranges of test antibodies (10-2.5-0.625-0.1563-0.0391-0.0098-0.0024-0.0006 μg/ml) are tested on the 20 generated mutants by flow cytometry.
# CD39 mutant 5 [2] = molecular target: T2, CD39 mutant 5; assay: flow cytometry, Hek-293T cells transfected with CD39 mutant 5 (panel M5); antibody concentration not shown
# CD39 mutant 19 [3] = molecular target: T3, CD39 mutant 19; assay: flow cytometry, Hek-293T cells transfected with CD39 mutant 19 (panel M19); antibody concentration not shown
# Protocol: as §1, §2
# CD39 mutant 5 [4] = molecular target: T2, CD39 mutant 5; assay: flow cytometry, Hek-293T cells expressing mutant 5
# CD39 mutant 11 = molecular target: T4, CD39 mutant 11; assay: flow cytometry, Hek-293T cells expressing mutant 11
# CD39 mutant 19 [5] = molecular target: T3, CD39 mutant 19; assay: flow cytometry, Hek-293T cells expressing mutant 19
# CD39 mutant 15 [6] = molecular target: T1, CD39 mutant 15; assay: flow cytometry, Hek-293T cells expressing mutant 15
# CD39 mutant 5 [7] = molecular target: T2, CD39 mutant 5; assay: flow cytometry, Hek-293T cells transfected with CD39 mutant 5 (panel M5), Comp-Alexa Fluor 647-A
# Protocol: as §1, §2
# CD39 mutant 19 [8] = molecular target: T3, CD39 mutant 19; assay: flow cytometry, Hek-293T cells transfected with CD39 mutant 19 (panel M19), Comp-Alexa Fluor 647-A
# CD39 mutant 15 [9] = molecular target: T1, CD39 mutant 15; assay: flow cytometry, Hek-293T cells transfected with CD39 mutant 15 (panel M15); antibody concentration not shown
Binder,Median : Comp-Alexa Fluor 647-A (CD39 mutant 15 [1]),binding result (CD39 mutant 5 [2]),binding result (CD39 mutant 19 [3]),binding result (CD39 mutant 5 [4]),binding result (CD39 mutant 11),binding result (CD39 mutant 19 [5]),binding result (CD39 mutant 15 [6]),binding result (CD39 mutant 5 [7]),binding result (CD39 mutant 19 [8]),binding result (CD39 mutant 15 [9])
B1,5750,no binding,no binding,–,–,–,–,–,–,–
B2,–,–,–,binds,no binding (tested: dose range up to 10 µg/ml),binds,binds,–,–,–
B3,35.9,–,–,–,–,–,–,binds,binds,no binding
